Measurements as given in the Immune Epitope Database (IEDB).

Experiments:
Details in all cases: source organism: Vaccinia virus WR
HLA-B*07:02 = assay: IEDB peptide-MHC binding, purified MHC/competitive/radioactivity; ≥ and ≤ were set here for values at or beyond the usual limits of such assays
HLA-B*35:01 = assay: as above
HLA-B*51:01 = assay: as above
HLA-B*53:01 = assay: as above
HLA-B*54:01 = assay: as above
HLA-A*03:01 [1] = assay: as above
HLA-A*11:01 [2] = assay: as above
HLA-A*31:01 [3] = assay: as above
HLA-A*33:01 [4] = assay: as above
HLA-A*68:01 = assay: IEDB peptide-MHC binding, purified MHC/competitive/radioactivity; filed as Kd, often an IC50 or EC50 that approximates it; ≥ and ≤ were set here for values at or beyond the usual limits of such assays
HLA-A*03:01 [5] = assay: as above
HLA-A*31:01 [6] = assay: as above
HLA-A*33:01 [7] = assay: as above
HLA-B*40:01 [8] = assay: IEDB peptide-MHC binding, purified MHC/competitive/radioactivity; ≥ and ≤ were set here for values at or beyond the usual limits of such assays
HLA-B*40:02 [9] = assay: as above
HLA-B*18:01 [10] = assay: IEDB peptide-MHC binding, purified MHC/competitive/radioactivity; filed as Kd, often an IC50 or EC50 that approximates it; ≥ and ≤ were set here for values at or beyond the usual limits of such assays
HLA-B*44:02 = assay: as above
HLA-B*44:03 = assay: as above
HLA-B*45:01 = assay: as above
HLA-A*02:01 = assay: IEDB peptide-MHC binding, purified MHC/competitive/radioactivity; ≥ and ≤ were set here for values at or beyond the usual limits of such assays
HLA-A*02:06 = assay: IEDB peptide-MHC binding, purified MHC/competitive/radioactivity; filed as Kd, often an IC50 or EC50 that approximates it; ≥ and ≤ were set here for values at or beyond the usual limits of such assays
HLA-A*11:01 [11] = assay: as above
HLA-B*18:01 [12] = assay: IEDB peptide-MHC binding, purified MHC/competitive/radioactivity; ≥ and ≤ were set here for values at or beyond the usual limits of such assays
HLA-B*40:01 [13] = assay: IEDB peptide-MHC binding, purified MHC/competitive/radioactivity; filed as Kd, often an IC50 or EC50 that approximates it; ≥ and ≤ were set here for values at or beyond the usual limits of such assays
HLA-B*40:02 [14] = assay: as above

MPAYIRNTL
IC50 (HLA-B*07:02): 0.53 nM | IC50 (HLA-B*35:01): 19 nM | IC50 (HLA-B*51:01): 461 nM | IC50 (HLA-B*53:01): 49 nM | IC50 (HLA-B*54:01): 3.4 nM

YLLVKWYRK
IC50 (HLA-A*03:01 [1]): 5.6 nM | IC50 (HLA-A*11:01 [2]): 3.6 nM | IC50 (HLA-A*31:01 [3]): 45 nM | IC50 (HLA-A*33:01 [4]): 114 nM | Kd (HLA-A*68:01): ≥ 50000 nM

ATSLDVINY
IC50 (HLA-A*11:01 [2]): 6.8 nM | Kd (HLA-A*03:01 [5]): 625 nM | Kd (HLA-A*31:01 [6]): 10300 nM | Kd (HLA-A*33:01 [7]): ≥ 50000 nM | Kd (HLA-A*68:01): ≥ 50000 nM

TEYDDHINL
IC50 (HLA-B*40:01 [8]): 7.5 nM | IC50 (HLA-B*40:02 [9]): 108 nM | Kd (HLA-B*18:01 [10]): 645 nM | Kd (HLA-B*44:02): 913 nM | Kd (HLA-B*44:03): 1200 nM | Kd (HLA-B*45:01): 7790 nM

FLVIAINAM
IC50 (HLA-A*02:01): 435 nM | Kd (HLA-A*02:06): 930 nM

AVKDVTITKK
IC50 (HLA-A*03:01 [1]): 84 nM | Kd (HLA-A*11:01 [11]): 519 nM | Kd (HLA-A*31:01 [6]): 605 nM | Kd (HLA-A*33:01 [7]): ≥ 50000 nM | Kd (HLA-A*68:01): 1620 nM

DELVDPINY
IC50 (HLA-B*18:01 [12]): 16 nM | Kd (HLA-B*40:01 [13]): 529 nM | Kd (HLA-B*40:02 [14]): 13300 nM | Kd (HLA-B*44:02): 14300 nM | Kd (HLA-B*44:03): 2670 nM | Kd (HLA-B*45:01): 12400 nM
